Numbering of substitutions follows the chain as printed.

As a reminder, the Kd is the free concentration of one partner at which half of the binding sites on the other are occupied at equilibrium, for simple one-to-one binding.

Holding throughout (assay): FRET or BRET; Clover fusion protein constant at 50 nM, mRuby2 fusion of antizyme titrated; TBS pH 7.4 + 0.15% Tween-20, 1 hour at room temperature; plate reader, fit of donor quenching
Common to all, as to conditions: both partners purified
For orientation: In BRET a luciferase serves as donor, and the signal depends on an acceptor being close.

Experiment [1] addresses T1, ODC-Clover fusion protein (ornithine decarboxylase), wild type (human, UniProt P11926 1-461).
T1 construct: human ornithine decarboxylase (hODC1); The legend says 'ODC-Clover fusion proteins'; the methods speak of N-terminal fluorescent fusion proteins of hODC1, so Clover is probably N-terminal; also called hODC1; source: bacterial expression vector (pBAD), purified recombinant protein
T1 sequence (looked up): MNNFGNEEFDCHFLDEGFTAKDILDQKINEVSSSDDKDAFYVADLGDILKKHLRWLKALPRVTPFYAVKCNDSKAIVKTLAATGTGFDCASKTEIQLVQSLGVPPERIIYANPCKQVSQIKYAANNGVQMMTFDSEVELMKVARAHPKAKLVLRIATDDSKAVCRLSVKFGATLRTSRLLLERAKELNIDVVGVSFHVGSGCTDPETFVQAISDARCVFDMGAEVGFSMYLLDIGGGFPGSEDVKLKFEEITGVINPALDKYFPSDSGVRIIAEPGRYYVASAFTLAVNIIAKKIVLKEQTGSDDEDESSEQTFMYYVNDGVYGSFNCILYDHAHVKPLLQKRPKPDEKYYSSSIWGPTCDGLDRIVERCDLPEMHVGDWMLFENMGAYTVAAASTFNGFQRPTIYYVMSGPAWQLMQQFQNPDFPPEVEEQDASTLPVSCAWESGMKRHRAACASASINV

Experiment [2] addresses T2, ODC-Y331S (Clover fusion protein) (human, UniProt P11926 1-461, Y331S).
T2 construct: human ornithine decarboxylase (hODC1) with Y331S; As m5 with the point mutation; source: bacterial expression vector (pBAD), purified recombinant protein
T2 sequence (looked up): T1 sequence (looked up) with Y331S

Experiment [3] concerns the target T3, ODC-N327A (Clover fusion protein) (human, UniProt P11926 1-461, N327A).
T3 construct: human ornithine decarboxylase (hODC1) with N327A; As m5 with the point mutation; source: bacterial expression vector (pBAD), purified recombinant protein
T3 sequence (looked up): T1 sequence (looked up) with N327A

The target in experiment [4] is T4, Clover-AZIN (antizyme inhibitor with an N-terminal Clover tag) (human, UniProt O14977 1-448).
T4 construct: The vector has a TEV protease site after the His tag; also called hAZIN1; source: bacterial expression vector (pBAD), purified recombinant protein; not shown: Clover, N-terminal, kept
T4 sequence (looked up): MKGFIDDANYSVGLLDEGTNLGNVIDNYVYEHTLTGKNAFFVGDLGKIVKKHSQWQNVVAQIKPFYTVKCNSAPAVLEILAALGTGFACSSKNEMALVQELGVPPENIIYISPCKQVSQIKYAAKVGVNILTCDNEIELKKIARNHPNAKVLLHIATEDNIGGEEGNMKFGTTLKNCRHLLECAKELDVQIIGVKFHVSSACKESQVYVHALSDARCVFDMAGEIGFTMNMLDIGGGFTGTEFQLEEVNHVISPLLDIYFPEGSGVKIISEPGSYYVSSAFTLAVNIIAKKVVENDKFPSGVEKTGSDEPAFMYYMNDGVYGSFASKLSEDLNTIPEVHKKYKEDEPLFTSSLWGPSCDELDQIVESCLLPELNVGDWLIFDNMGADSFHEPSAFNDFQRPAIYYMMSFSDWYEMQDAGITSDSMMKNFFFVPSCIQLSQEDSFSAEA

B1: antizyme-mRuby2 (antizyme with a C-terminal mRuby2 tag) (natural protein)
chain: not shown
notes: human antizyme 1 (OAZ1), codon-optimized synthetic gene; An HRV 3C protease site lies between antizyme and mRuby2 (used for the cleavage control); also called AZ-mRuby2; AZ; source: bacterial expression vector (pBAD), gene codon optimized for E. coli, purified recombinant protein; not shown: mRuby2, C-terminal, kept
Take B1: the Kd in experiment [1] stood at 508 nM; in experiment [2], 277 nM; in experiment [3], 192 nM; in experiment [4], 22 nM.

For the origin of these results see publication PMC6420652, “Developing a novel FRET assay, targeting the binding between Antizyme-AZIN” (Scientific Reports, 2019).
